For experiment [1], the target named is human PD-1 on cells (transfected Expi293 cells, PHA-cultured T cells, cells of the Promega PD1-PDL1 bioassay, T cells of the MLR) (human) (UniProt Q15116). The experiment can be described thus: cell-based or functional assay.
Experiment [2] addresses soluble PD-1 (biotinylated PD-1; expi293 expressed soluble PD1-avi) (human) (UniProt Q15116). The experiment can be described thus: method not named at the list; Octet (BLI) on biotinylated PD-1 by context. A general note: BLI is a label-free optical method that tracks binding on a fibre tip over time.
Experiment [3] shares this target. The experiment can be described thus: Octet (BLI).

soluble PD-1 (biotinylated PD-1; expi293 expressed soluble PD1-avi) (human), sequence (Q15116 25-170): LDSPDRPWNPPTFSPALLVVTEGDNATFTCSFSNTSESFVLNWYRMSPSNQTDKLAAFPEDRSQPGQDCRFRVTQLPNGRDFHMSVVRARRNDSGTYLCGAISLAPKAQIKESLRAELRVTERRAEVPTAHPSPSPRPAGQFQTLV
human PD-1 on cells (transfected Expi293 cells, PHA-cultured T cells, cells of the Promega PD1-PDL1 bioassay, T cells of the MLR) (human), sequence (Q15116 25-288): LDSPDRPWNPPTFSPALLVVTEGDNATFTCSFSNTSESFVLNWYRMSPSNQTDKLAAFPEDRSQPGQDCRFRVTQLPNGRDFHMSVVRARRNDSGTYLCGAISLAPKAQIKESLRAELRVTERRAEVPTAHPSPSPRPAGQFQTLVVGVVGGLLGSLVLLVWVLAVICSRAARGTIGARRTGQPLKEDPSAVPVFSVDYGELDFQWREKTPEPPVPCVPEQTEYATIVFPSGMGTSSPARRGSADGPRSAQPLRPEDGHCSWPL

B1: P4-B3 minibody (scFv-Fc) (Fc fusion, part only; not given: Hinge, Fc, domain order, not shown: another chain or arm of the molecule; a dimerising Fc or GST; small tags and cut ends)
VH: QVQLVQSGGGLVQPGRSLRLSCAASGFTFDDYAMHWVRQAPGKGLEWVSGISWNSGSIGYADSVKGRFTVSRDNAKNSLYLQMNSLRAEDTAVYYCASDYGDKYYYYGMDVWGKGTTVTVSS
VL: QPGLTQPPSASGTPGQRVTISCSGSSSNIGSNTVNWYQQFPGKAPKLLIFNDNQRPSGVPDRFSASKSGTSASLAISGLQSEDEADYYCAAWDGGLNGRGVFGGGTKLTVL
As a reminder, the Kd is a measure of binding affinity in units of concentration. A high value points to lower affinity. On to B1, for which the EC50 against Nivo, Promega PD1-PDL1 bioassay (fold of the EC50 of Nivo) in experiment [1] came to 1.75. The Kd in experiment [2] stood at 1 nM.

B2: P4-B3 scFv (scFv, part only; not given: Linker, domain order, tag, V domains shown, not shown: another chain or arm of the molecule; small tags and cut ends)
VH: B1 VH
VL: B1 VL
For orientation: koff means the first-order rate constant of dissociation. A word on the kon: it is the second-order rate constant of association. Low readings indicate slower complex formation, high ones faster complex formation. On to B2, for which, in experiment [3], the Kd was determined as 0.94 nM, the koff was determined as 6.45e-05 s⁻¹ and the kon is 68500 M⁻¹ s⁻¹.

(Values after patent publication US20220275088A1.)
